{"source": "patent US11629193B2", "about": "“EGFR binding molecules” (F-STAR BETA LIMITED, priority 2016, dated 2023)", "key": {"LL2.ova": {"test_system": "LL2.ova", "experiment": "In vivo skin toxicity and tumour growth, syngeneic mouse tumour model LL2.ova", "details": "250 μg intraperitoneally on days 3, 6 and 10; eight mice each", "protocol": "Skin toxicity has been observed with known anti-EGFR therapies, resulting in skin rash, lesions etc. In order to determine the toxicity of anti-EGFR Fcabs and mAb^2 containing anti-EGFR Fcs, an in vivo study was conducted. […] The tumour cells (5×10^5 cells) were implanted subcutaneously in the flank of female C57B16 (Charles River) mice aged 6-8 weeks and the mice were randomly assigned to four cohorts of eight mice each. […] The tumour volumes were measured with electronic callipers at days 10, 12, 14, 17, 19, 20 and 21. At day 16 pictures of the mice were taken to illustrate the observed skin toxicity."}, "NCI-H1975 cells": {"test_system": "NCI-H1975 cells", "experiment": "Cell proliferation, NCI-H1975 cells stimulated with HGF", "format": "cell-based", "details": "NCI-H1975, antibodies 300 nM with and without erlotinib (2 μM)", "protocol": "NCI-H1975 (ATCC CRL-5908) is a non-small cell lung cancer (NSCLC) cell line which expresses constitutively active mutated EGFR L858R and EGFR T790M (Kobayashi et al 2005). These mutations are acquired secondary mutations known to confer resistance to EGFR tyrosine kinase inhibitor (TKI) therapies in NSCLC patients. The NCI-H1975 cell line also expresses c-Met. […] The same method was used as in the U87MG assay described above, except that the NCI-H1975 cells were stimulated with HGF. One day before the treatment, the medium used was changed from containing 10% FBS to containing no serum. Treatments were added at various concentrations (0.003-300 nM) in the presence of 80 ng/ml HGF and incubated for 3 days at 37° C."}, "[1]": {"test_system": "phosphorylation of c-Met and EGFR", "experiment": "Western blot of receptor phosphorylation in U87MG cells", "format": "cell-based, human", "details": "200 nM, 20 min", "protocol": "(§1) Overnight cultures of the glioblastoma cell line U87MG (ATCC HTB-14) were moved from a medium with 10% FBS to a low serum medium with 0.1% FBS to optimise sensitivity to ligand stimulation. The cells were incubated overnight. […] Controls without antibody treatment were included, with and without growth factor stimulation. The treated cells were lysed using lysis buffer (10 mM Tris® pH7.5, 150 mM NaCl, 1 mM EDTA) comprising 1:100 protease inhibitor cocktail (Calbiochem, 539131) and 1:100 Phosphatase inhibitor cocktail (Calbiochem, 524625) and the lysates collected for analysis.\n(§2) Lysate samples were subjected to standard western blotting analysis using a 4-12% Bis-Tris® protein gel (ThermoFisher, NP0322BOX) and transferred to a nitrocellulose membrane (ThermoFisher, IB301001). The membrane was blocked with 5% Marvel milk/TBST and then probed for phospho-c-Met using a rabbit monoclonal antibody specific for c-Met phosphorylated at Tyr1234/1235 (Cell Signaling, 3077), phospho-EGFR using a mouse monoclonal antibody specific for EGFR phosphorylated at Tyr1068 (Cell Signaling, 2236), phospho-MAPK using a mouse monoclonal antibody specific for p44/42 MAPK (ERK1/2) phosphorylated at Thr202/Tyr204 (Cell Signaling, 9106), and phospho-Akt using a rabbit monoclonal antibody specific for Akt phosphorylated at Ser473 (Cell Signaling, 9271). […]"}, "[2]": {"test_system": "phosphorylation of MAPK and Akt", "experiment": "Western blot of downstream signalling in U87MG cells", "format": "cell-based, human", "details": "200 nM (200+200 nM for combination), HGF and EGF present", "protocol": "as §1, §2"}, "HGF": {"biological_target": "HGF (Homo sapiens, UniProt P14210)", "sequence (P14210 32-728)": "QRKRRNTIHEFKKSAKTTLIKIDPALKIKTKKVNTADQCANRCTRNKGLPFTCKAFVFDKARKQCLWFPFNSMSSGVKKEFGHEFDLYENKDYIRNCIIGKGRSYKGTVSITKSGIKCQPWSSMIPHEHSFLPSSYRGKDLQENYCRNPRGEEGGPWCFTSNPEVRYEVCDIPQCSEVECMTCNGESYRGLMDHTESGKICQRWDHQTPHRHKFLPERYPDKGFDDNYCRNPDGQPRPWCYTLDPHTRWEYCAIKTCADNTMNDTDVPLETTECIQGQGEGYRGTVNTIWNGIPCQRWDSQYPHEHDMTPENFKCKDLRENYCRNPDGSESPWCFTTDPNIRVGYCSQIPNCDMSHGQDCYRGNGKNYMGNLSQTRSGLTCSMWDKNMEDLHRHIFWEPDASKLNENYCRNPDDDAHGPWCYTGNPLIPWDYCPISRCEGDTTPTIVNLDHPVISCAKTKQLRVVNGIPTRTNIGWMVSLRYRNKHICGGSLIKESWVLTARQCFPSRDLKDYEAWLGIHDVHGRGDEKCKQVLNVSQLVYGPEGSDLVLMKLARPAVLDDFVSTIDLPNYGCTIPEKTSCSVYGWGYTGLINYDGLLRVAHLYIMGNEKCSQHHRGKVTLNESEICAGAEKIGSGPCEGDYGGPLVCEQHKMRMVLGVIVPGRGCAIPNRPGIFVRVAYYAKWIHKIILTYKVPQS", "experiment": "Free HGF in culture media of U87MG cells (HGF Human ELISA Kit)", "format": "cell-based", "design": "examined in U87MG cells that secrete HGF; endogenous in cells; host or cells: U87MG", "details": "30 nM, 4 days, compared to controls", "protocol": "It was hypothesised that internalisation of HGF by anti-EGFR/HGF mAb^2 leads to reduced level of HGF in the system. To test this hypothesis, the change in level of free HGF caused by incubation with anti-EGFR/HGF mAb^2 was examined in U87MG cells that secrete HGF. U87MG cultures were incubated with different treatments at 30 nM for 4 days at 37° C. […] On day 4, the media from each cell culture were collected for HGF level analysis. HGF concentration was measured using HGF Human ELISA Kit (ThermoFisher, KAC2211) following the manufacturer's protocol. Using monoclonal anti-HGF antibodies, the free HGF in media was detected (free HGF was defined as HGF in the media which was bound by detection antibodies)."}}, "data": [{"compound": "9D9m2a: anti-mouse CTLA4 antibody: 9D9 VH in mouse IgG2a backbone, heavy chain SEQ ID NO: 52, light chain SEQ ID NO: 50 [Fcab 9D9m2a, reference compound]", "values": [{"measurement": "Mice showing hair loss", "setting": "LL2.ova", "result": "0/8"}, {"measurement": "Skin lesions", "setting": "LL2.ova", "result": "0/8"}]}, {"compound": "C#Cc1cccc(Nc2ncnc3cc(OCCOC)c(OCCOC)cc23)c1", "note": "[erlotinib, reference compound]", "values": [{"measurement": "reduction of cell proliferation induced by HGF", "setting": "NCI-H1975 cells", "result": "No effect"}]}, {"compound": "rilotumumab [reference compound]", "values": [{"measurement": "block of phosphorylation of c-Met by HGF", "setting": "[1]", "result": "able to block the phosphorylation of c-Met by HGF"}, {"measurement": "block of phosphorylation of MAPK and Akt", "setting": "[2]", "result": "unable to block the phosphorylation of MAPK and Akt"}, {"measurement": "concentration of free HGF in the media", "setting": "HGF", "result": "significant decrease in the concentration of free HGF in the media"}]}]}
